Consider two molecules from publication PMC5349785 (Molecular Biology of the Cell, 2017).

Assay [1] has as its target T1, Vps5 with C-terminal TAP tag (S. cerevisiae, UniProt Q92331 1-675).
T1 sequence: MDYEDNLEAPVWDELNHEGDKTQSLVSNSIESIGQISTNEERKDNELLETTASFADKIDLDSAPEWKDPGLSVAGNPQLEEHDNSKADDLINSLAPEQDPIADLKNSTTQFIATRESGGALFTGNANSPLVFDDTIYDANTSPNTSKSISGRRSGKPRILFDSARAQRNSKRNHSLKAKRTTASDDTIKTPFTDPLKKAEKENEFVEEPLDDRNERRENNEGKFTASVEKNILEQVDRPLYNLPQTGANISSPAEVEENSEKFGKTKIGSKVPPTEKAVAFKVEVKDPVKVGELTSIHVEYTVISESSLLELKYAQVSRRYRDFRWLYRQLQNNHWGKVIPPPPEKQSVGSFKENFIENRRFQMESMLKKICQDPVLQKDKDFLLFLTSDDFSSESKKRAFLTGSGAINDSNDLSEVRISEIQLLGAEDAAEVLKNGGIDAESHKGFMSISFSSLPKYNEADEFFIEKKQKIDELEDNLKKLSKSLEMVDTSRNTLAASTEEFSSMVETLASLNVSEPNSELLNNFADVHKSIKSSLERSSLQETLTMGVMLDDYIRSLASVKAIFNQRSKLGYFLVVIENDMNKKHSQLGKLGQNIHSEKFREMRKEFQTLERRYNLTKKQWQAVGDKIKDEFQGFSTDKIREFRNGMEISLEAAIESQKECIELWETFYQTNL
In words: tandem affinity purification.

In assay [2] the target is cargo selection complex (CSC; Vps35, Vps26, Vps29) (S. cerevisiae, UniProt P34110;P40335;P38759). In words: pull-down.
The target in assay [3] is CSC with GFP-tagged Vps29 (CSC-GFP) (S. cerevisiae, UniProt P34110;P40335;P38759). In words: pull-down.

B1: Vps17 (natural protein)
chain: MTSAVPYDPYDDLDNNPFAEPQEEDSEPAATTTDGSSSMSEERVGTEQTAASVQDNGTANNIQNGLGEEGNATRSKTSNEHNENQQPSQPSERVILPERSDEKKKYTLLAKVTGLERFGSATGKKENPTIIFDCSTNLPTFRKQQYKNVKKSYEEFHQLFKYLNVAIQESFVPTLPSAYTTFGINSEEDRMKVTRNFQLWFNRLSQDPLIIRNEEVAFFIESDFNTYTPINKSKSLASGLKRKTLKQLAPPYDEITELAEFRPLVKSIYVVSQSLQEKLLRVSRNRKMMVQEENAFGQDFVNLDEHNKLYRRYGKILTAVGDIDSIIATMDMATLYDGLEWIVRDAYAVKEALTNRHFIMRNLVQAQQNSKAKQEQARRFRSRRDINPMKIDEALRQLKAAAKNEQVLTLKLQRITSNMIIERKQWISWYEEWIRSSIKEFTLRKIEYERKKLTLLERVRSDIRKADENGGLSRLGRHAVSNNNSDTSQTLKGDSWTGESNRKSQIPINKIAHTEFDDELFTEDDGYNSQDSDTTSLNARHAASLLGMSTK
As to B1, the binding result in assay [1] is “binds”.

B2: GST-tagged Ypt7 (natural protein)
chain: MSSRKKNILKVIILGDSGVGKTSLMHRYVNDKYSQQYKATIGADFLTKEVTVDGDKVATMQVWDTAGQERFQSLGVAFYRGADCCVLVYDVTNASSFENIKSWRDEFLVHANVNSPETFPFVILGNKIDAEESKKIVSEKSAQELAKSLGDIPLFLTSAKNAINVDTAFEEIARSALQQNQADTEAFEDDYNDAINIRLDGENNSCSC
For the molecule B2, the binding result in assay [2] and in assay [3] was “binds” in each case.
